From patent US20230143604A1, “QW DOSING OF GIP RECEPTOR AGONIST PEPTIDE COMPOUNDS AND USES THEREOF” (TAKEDA PHARMACEUTICAL COMPANY LIMITED, priority 2020, published 2023)
Starred links: 1 amine or outer side, 2 acyl side, 3 side chain; linkers in the order of their positions; H or OH if unused. Non-standard residues stand in square brackets, D forms with d. Groups on a side chain read outwards from the residue. *: point of attachment. C18 diacid = O=C(O)CCCCCCCCCCCCCCCCC(=O)*; γGlu = O=C(O)[C@H](CCC(=O)[*:2])N[*:1]; AEEA = NCCOCCOCC(=O)O; Aib = CC(C)(N)C(=O)O

B1: Compound No. 167 (peptide)
peptide: H-Y[Aib]EGTFISDYSI[Aib]LDKAAQQK([AEEA-AEEA-γGlu-γGlu-C18 diacid])FVEWLLAQRG-OH
SMILES: CC[C@H](C)[C@H](NC(=O)[C@H](Cc1ccccc1)NC(=O)[C@@H](NC(=O)CNC(=O)[C@H](CCC(=O)O)NC(=O)C(C)(C)NC(=O)[C@@H](N)Cc1ccc(O)cc1)[C@@H](C)O)C(=O)N[C@@H](CO)C(=O)N[C@@H](CC(=O)O)C(=O)N[C@@H](Cc1ccc(O)cc1)C(=O)N[C@@H](CO)C(=O)N[C@H](C(=O)NC(C)(C)C(=O)N[C@@H](CC(C)C)C(=O)N[C@@H](CC(=O)O)C(=O)N[C@@H](CCCCN)C(=O)N[C@@H](C)C(=O)N[C@@H](C)C(=O)N[C@@H](CCC(N)=O)C(=O)N[C@@H](CCC(N)=O)C(=O)N[C@@H](CCCCNC(=O)COCCOCCNC(=O)COCCOCCNC(=O)CC[C@H](NC(=O)CC[C@H](NC(=O)CCCCCCCCCCCCCCCCC(=O)O)C(=O)O)C(=O)O)C(=O)N[C@@H](Cc1ccccc1)C(=O)N[C@H](C(=O)N[C@@H](CCC(=O)O)C(=O)N[C@@H](Cc1c[nH]c2ccccc12)C(=O)N[C@@H](CC(C)C)C(=O)N[C@@H](CC(C)C)C(=O)N[C@@H](C)C(=O)N[C@@H](CCC(N)=O)C(=O)N[C@@H](CCCNC(=N)N)C(=O)NCC(=O)O)C(C)C)[C@@H](C)CC
B2: Compound No. 169 (peptide)
peptide: H-Y[Aib]EGTFISDYSI[Aib]LDKAK([AEEA-AEEA-γGlu-C18 diacid])QQDFVEWLLAQRG-OH
SMILES: CC[C@H](C)[C@H](NC(=O)[C@H](Cc1ccccc1)NC(=O)[C@@H](NC(=O)CNC(=O)[C@H](CCC(=O)O)NC(=O)C(C)(C)NC(=O)[C@@H](N)Cc1ccc(O)cc1)[C@@H](C)O)C(=O)N[C@@H](CO)C(=O)N[C@@H](CC(=O)O)C(=O)N[C@@H](Cc1ccc(O)cc1)C(=O)N[C@@H](CO)C(=O)N[C@H](C(=O)NC(C)(C)C(=O)N[C@@H](CC(C)C)C(=O)N[C@@H](CC(=O)O)C(=O)N[C@@H](CCCCN)C(=O)N[C@@H](C)C(=O)N[C@@H](CCCCNC(=O)COCCOCCNC(=O)COCCOCCNC(=O)CC[C@H](NC(=O)CCCCCCCCCCCCCCCCC(=O)O)C(=O)O)C(=O)N[C@@H](CCC(N)=O)C(=O)N[C@@H](CCC(N)=O)C(=O)N[C@@H](CC(=O)O)C(=O)N[C@@H](Cc1ccccc1)C(=O)N[C@H](C(=O)N[C@@H](CCC(=O)O)C(=O)N[C@@H](Cc1c[nH]c2ccccc12)C(=O)N[C@@H](CC(C)C)C(=O)N[C@@H](CC(C)C)C(=O)N[C@@H](C)C(=O)N[C@@H](CCC(N)=O)C(=O)N[C@@H](CCCNC(=N)N)C(=O)NCC(=O)O)C(C)C)[C@@H](C)CC
B3: Compound No. 168 (peptide)
peptide: H-Y[Aib]EGTFISDYSI[Aib]LDKAAQAK([AEEA-AEEA-γGlu-γGlu-C18 diacid])FVEWLLAQRG-OH
SMILES: CC[C@H](C)[C@H](NC(=O)[C@H](Cc1ccccc1)NC(=O)[C@@H](NC(=O)CNC(=O)[C@H](CCC(=O)O)NC(=O)C(C)(C)NC(=O)[C@@H](N)Cc1ccc(O)cc1)[C@@H](C)O)C(=O)N[C@@H](CO)C(=O)N[C@@H](CC(=O)O)C(=O)N[C@@H](Cc1ccc(O)cc1)C(=O)N[C@@H](CO)C(=O)N[C@H](C(=O)NC(C)(C)C(=O)N[C@@H](CC(C)C)C(=O)N[C@@H](CC(=O)O)C(=O)N[C@@H](CCCCN)C(=O)N[C@@H](C)C(=O)N[C@@H](C)C(=O)N[C@@H](CCC(N)=O)C(=O)N[C@@H](C)C(=O)N[C@@H](CCCCNC(=O)COCCOCCNC(=O)COCCOCCNC(=O)CC[C@H](NC(=O)CC[C@H](NC(=O)CCCCCCCCCCCCCCCCC(=O)O)C(=O)O)C(=O)O)C(=O)N[C@@H](Cc1ccccc1)C(=O)N[C@H](C(=O)N[C@@H](CCC(=O)O)C(=O)N[C@@H](Cc1c[nH]c2ccccc12)C(=O)N[C@@H](CC(C)C)C(=O)N[C@@H](CC(C)C)C(=O)N[C@@H](C)C(=O)N[C@@H](CCC(N)=O)C(=O)N[C@@H](CCCNC(=N)N)C(=O)NCC(=O)O)C(C)C)[C@@H](C)CC
B4: Compound No. 163 (peptide)
peptide: H-Y[Aib]EGTFISDYSIALDK[Aib]K([AEEA-AEEA-γGlu-C18 diacid])QANFVEWLLAQRG-OH
SMILES: CC[C@H](C)[C@H](NC(=O)[C@H](CO)NC(=O)[C@H](Cc1ccc(O)cc1)NC(=O)[C@H](CC(=O)O)NC(=O)[C@H](CO)NC(=O)[C@@H](NC(=O)[C@H](Cc1ccccc1)NC(=O)[C@@H](NC(=O)CNC(=O)[C@H](CCC(=O)O)NC(=O)C(C)(C)NC(=O)[C@@H](N)Cc1ccc(O)cc1)[C@@H](C)O)[C@@H](C)CC)C(=O)N[C@@H](C)C(=O)N[C@@H](CC(C)C)C(=O)N[C@@H](CC(=O)O)C(=O)N[C@@H](CCCCN)C(=O)NC(C)(C)C(=O)N[C@@H](CCCCNC(=O)COCCOCCNC(=O)COCCOCCNC(=O)CC[C@H](NC(=O)CCCCCCCCCCCCCCCCC(=O)O)C(=O)O)C(=O)N[C@@H](CCC(N)=O)C(=O)N[C@@H](C)C(=O)N[C@@H](CC(N)=O)C(=O)N[C@@H](Cc1ccccc1)C(=O)N[C@H](C(=O)N[C@@H](CCC(=O)O)C(=O)N[C@@H](Cc1c[nH]c2ccccc12)C(=O)N[C@@H](CC(C)C)C(=O)N[C@@H](CC(C)C)C(=O)N[C@@H](C)C(=O)N[C@@H](CCC(N)=O)C(=O)N[C@@H](CCCNC(=N)N)C(=O)NCC(=O)O)C(C)C
B5: Compound No. 162 (peptide)
peptide: H-Y[Aib]EGTFISDYSIALDK[Aib]K([AEEA-AEEA-γGlu-C18 diacid])QADFVEWLLAQRG-OH
SMILES: CC[C@H](C)[C@H](NC(=O)[C@H](CO)NC(=O)[C@H](Cc1ccc(O)cc1)NC(=O)[C@H](CC(=O)O)NC(=O)[C@H](CO)NC(=O)[C@@H](NC(=O)[C@H](Cc1ccccc1)NC(=O)[C@@H](NC(=O)CNC(=O)[C@H](CCC(=O)O)NC(=O)C(C)(C)NC(=O)[C@@H](N)Cc1ccc(O)cc1)[C@@H](C)O)[C@@H](C)CC)C(=O)N[C@@H](C)C(=O)N[C@@H](CC(C)C)C(=O)N[C@@H](CC(=O)O)C(=O)N[C@@H](CCCCN)C(=O)NC(C)(C)C(=O)N[C@@H](CCCCNC(=O)COCCOCCNC(=O)COCCOCCNC(=O)CC[C@H](NC(=O)CCCCCCCCCCCCCCCCC(=O)O)C(=O)O)C(=O)N[C@@H](CCC(N)=O)C(=O)N[C@@H](C)C(=O)N[C@@H](CC(=O)O)C(=O)N[C@@H](Cc1ccccc1)C(=O)N[C@H](C(=O)N[C@@H](CCC(=O)O)C(=O)N[C@@H](Cc1c[nH]c2ccccc12)C(=O)N[C@@H](CC(C)C)C(=O)N[C@@H](CC(C)C)C(=O)N[C@@H](C)C(=O)N[C@@H](CCC(N)=O)C(=O)N[C@@H](CCCNC(=N)N)C(=O)NCC(=O)O)C(C)C
B6: Compound No. 170 (peptide)
peptide: H-Y[Aib]EGTFISDYSI[Aib]LDKAK([AEEA-AEEA-γGlu-C18 diacid])QQDFVNWLLAQRG-OH
SMILES: CC[C@H](C)[C@H](NC(=O)[C@H](Cc1ccccc1)NC(=O)[C@@H](NC(=O)CNC(=O)[C@H](CCC(=O)O)NC(=O)C(C)(C)NC(=O)[C@@H](N)Cc1ccc(O)cc1)[C@@H](C)O)C(=O)N[C@@H](CO)C(=O)N[C@@H](CC(=O)O)C(=O)N[C@@H](Cc1ccc(O)cc1)C(=O)N[C@@H](CO)C(=O)N[C@H](C(=O)NC(C)(C)C(=O)N[C@@H](CC(C)C)C(=O)N[C@@H](CC(=O)O)C(=O)N[C@@H](CCCCN)C(=O)N[C@@H](C)C(=O)N[C@@H](CCCCNC(=O)COCCOCCNC(=O)COCCOCCNC(=O)CC[C@H](NC(=O)CCCCCCCCCCCCCCCCC(=O)O)C(=O)O)C(=O)N[C@@H](CCC(N)=O)C(=O)N[C@@H](CCC(N)=O)C(=O)N[C@@H](CC(=O)O)C(=O)N[C@@H](Cc1ccccc1)C(=O)N[C@H](C(=O)N[C@@H](CC(N)=O)C(=O)N[C@@H](Cc1c[nH]c2ccccc12)C(=O)N[C@@H](CC(C)C)C(=O)N[C@@H](CC(C)C)C(=O)N[C@@H](C)C(=O)N[C@@H](CCC(N)=O)C(=O)N[C@@H](CCCNC(=N)N)C(=O)NCC(=O)O)C(C)C)[C@@H](C)CC

Tests used:
[1] = biological target: T1, full-length human GIPR with an N-terminal FLAG tag, overexpressed on HEK-293T cells (human, UniProt P48546 22-466); test: cell-based or functional assay
T1 sequence (looked up): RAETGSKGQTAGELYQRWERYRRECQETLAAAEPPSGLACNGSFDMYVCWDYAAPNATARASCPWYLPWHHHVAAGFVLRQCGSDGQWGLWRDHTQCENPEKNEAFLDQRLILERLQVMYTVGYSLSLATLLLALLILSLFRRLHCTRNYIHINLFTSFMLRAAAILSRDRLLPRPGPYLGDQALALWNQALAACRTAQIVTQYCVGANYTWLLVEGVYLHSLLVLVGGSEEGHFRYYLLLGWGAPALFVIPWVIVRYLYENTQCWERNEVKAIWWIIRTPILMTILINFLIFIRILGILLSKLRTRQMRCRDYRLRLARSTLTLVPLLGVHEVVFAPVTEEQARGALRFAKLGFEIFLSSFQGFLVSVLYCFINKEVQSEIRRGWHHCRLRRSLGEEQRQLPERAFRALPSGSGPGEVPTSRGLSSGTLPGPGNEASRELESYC

[2] = biological target: full-length human GLP-1R with an N-terminal FLAG tag, overexpressed on HEK-293T cells (human, UniProt P43220 24-463); test: cell-based or functional assay

Row | Binder | Human GIPR cAMP EC50, HEK293T [1] [nM] | Human GLP1R cAMP EC50, HEK293T [2] [nM]
1 | B1 | 0.0009 | 38
2 | B2 | 0.0008 | 178
3 | B3 | 0.0009 | 16.6
4 | YXEGTFISDYSIAXDKAXQQDFVEWLLAQRG (N-terminus H; Aib at 2, 14; Km at 18 = Lys(2OEGgE-C18DA); C-terminus OH) [Compound No. 164] | 0.0002 | > 1000
5 | YXEGTFISDYSIAXDKIXQADFVEWLLAQRG (N-terminus H; Aib at 2, 14; Km at 18 = Lys(2OEGgE-C18DA); C-terminus OH) [Compound No. 166] | 0.0005 | 74.1
6 | YXEGTFISDYSIAXDKAXQADFVEWLLAQRG (N-terminus H; Aib at 2, 14; Km at 18 = Lys(2OEGgE-C18DA); C-terminus OH) [Compound No. 165] | 0.0001 | > 1000
7 | H-Y[Aib]EGTFISDYSIALDKIK([AEEA-AEEA-γGlu-C18 diacid])Q[Aib]DFVEWLLAQRG-OH [Compound No. 160] | 0.0003 | 537
8 | B4 | 0.0002 | 219
9 | H-Y[Aib]EGTFISDYSIALDKAK([AEEA-AEEA-γGlu-C18 diacid])Q[Aib]DFVEWLLAQRG-OH [Compound No. 161] | 0.0001 | 85.1
10 | B5 | 0.0004 | 589
11 | B6 | 0.0005 | 61.7
